Results reported in US20190017046A1.

Assays:
[1] = target: lysozyme, fluorescence-labeled with Alexa Fluor 488; assay: grade of lysozyme carrying rate in the summary table (A: equal to or higher than 50%)
[2] = target: lysozyme, fluorescence-labeled with Alexa Fluor 488; assay: fluorescent lysozyme retained in the sponge after 3 h in 10x diluted PBS; supernatant fluorescence, plate reader
[3] = target: lysozyme, fluorescence-labeled with Alexa Fluor 488; assay: grade of lysozyme carrying rate in the summary table (B: 25% or higher and less than 50%)
[4] = target: lysozyme, fluorescence-labeled with Alexa Fluor 488; assay: grade of lysozyme carrying rate in the summary table (C: less than 25%)

Row | lysozyme carrying rate [1] | lysozyme carrying rate (actual measurement value) [2] | lysozyme carrying rate [3] | lysozyme carrying rate [4] | Substance
1 | > 50% | 71% | – | – | member for a preparation "A": thermally crosslinked substance of CBE3 and succinylated CBE3, molar ratio of CBE3 to succinylated CBE3 = 1 to 3
2 | – | 66% | – | – | member for a preparation "B": thermally crosslinked substance of CBE3 and succinylated CBE3, molar ratio of CBE3 to succinylated CBE3 = 1 to 1
3 | – | 38% | 25 to 50% | – | member for a preparation "C": thermally crosslinked substance of CBE3 and succinylated CBE3, molar ratio of CBE3 to succinylated CBE3 = 3 to 1
4 | – | 8% | – | < 25% | member for a preparation "G": thermally crosslinked CBE3 only, molar ratio of CBE3 to succinylated CBE3 = 1 to 0
